Experimental data published in article PMC6276879 (The EMBO Journal, 2018).

Target: T1, phosphorylated ubiquitin (UniProt P0CG48 1-76, phosphorylated by PINK1 (pUb); the residue is not given)
T1 construct: ubiquitin, phosphorylated by PINK1 (pUb); also called pUb; phospho-ubiquitin; source: E. coli BL21(DE3)CodonPlus-RIL; phosphorylated with Pediculus humanus PINK1, purified (Superdex 75)
Assay: SEC; 1.5-fold excess pUb over R0RBR in 20 mM Tris, 75 mM NaCl, 250 uM TCEP, pH 8; 1:1 complex purified on Superdex 75 10/300
Settings: both partners purified

binding result: binds
B1: R0RBR parkin (141-465) (domain or fragment, human, UniProt O60260 141-465, looked up)
chain: SIYNSFYVYCKGPCQRVQPGKLRVQCSTCRQATLTLTQGPSCWDDVLIPNRMSGECQSPHCPGTSAEFFFKCGAHPTSDKETSVALHLIATNSRNITCITCTDVRSPVLVFQCNSRHVICLDCFHLYCVTRLNDRQFVHDPQLGYSLPCVAGCPNSLIKELHHFRILGEEQYNRYQQYGAEECVLQMGGVLCPRPGCGAGLLPEPDQRKVTCEGGNGLGCGFAFCRECKEAYHEGECSAVFEASGTTTQAYRVDERAAEQARWEAASKETIKKTTKPCPRCHVPVEKNGGCMHMKCPQPQCRLEWCWNCGCEWNRVCMGDHWFDV
notes: parkin, human, residues 141-465 (R0RBR: RING0-RING1-IBR-RING2(Rcat)); also called R0RBR C-terminal region of parkin; source: E. coli BL21(DE3), purified (HisTrap, Ulp1 cleavage, HisTrap, Superdex 75); not shown: His-smt3, N-terminal, cleaved
